Results: the Human Domainome abundance scans (Beltran et al. 2025)
± gives the uncertainty stated by the source.

B1: Syntaxin-binding protein 4, residues 493 to 538; numbered along this chain, Q6ZWJ1 (parent)
chain: LDMDCLPYGWEEAYTADGIKYFINHVTQTTSWIHPVMSVLNLSRSE

Variants of: B1
Assay: abundance fitness (aPCA) (normalised: wild type 0, dead -1); higher = more abundant; growth selection in yeast, the domain comes from the species named
Conditions: Homo sapiens
D17S showed an abundance fitness of -0.625 ± 0.09. Work on H34G yielded an abundance fitness of -0.822 ± 0.1. In the case of E46T, the abundance fitness is reported as -0.143 ± 0.24. In the case of F22T, the abundance fitness is reported as -0.458 ± 0.1. With E11I the abundance fitness was -0.502 ± 0.13. In the case of E46R, the abundance fitness is reported as -0.132 ± 0.2. In the case of Y8P, the abundance fitness is reported as 0.157 ± 0.08. Variant I19E has an abundance fitness of 1.09 ± 0.082. For T30V, the abundance fitness was -0.691 ± 0.096. For T15D, the abundance fitness was -0.509 ± 0.13. Variant K20I has an abundance fitness of -0.853 ± 0.19. Work on E12W yielded an abundance fitness of -0.744 ± 0.1. With H34N the abundance fitness was -0.141 ± 0.13. D17K gave an abundance fitness of -0.547 ± 0.1. With D4H the abundance fitness was -0.835 ± 0.17. For I23H, the abundance fitness was -0.833 ± 0.42. Variant W10N has an abundance fitness of -0.615 ± 0.15. V36L showed an abundance fitness of -0.035 ± 0.082. T27D gave an abundance fitness of -0.127 ± 0.16. M37S gave an abundance fitness of 0.28 ± 0.09. S31I gave an abundance fitness of -0.633 ± 0.16. With V36R the abundance fitness was 0.712 ± 0.081. In the case of V39S, the abundance fitness is reported as -0.079 ± 0.093. With I33R the abundance fitness was -0.481 ± 0.094. Work on T27F yielded an abundance fitness of 0.071 ± 0.25. In the case of M37P, the abundance fitness is reported as -0.603 ± 0.14. Work on D2L yielded an abundance fitness of -0.424 ± 0.093. Variant L40Y has an abundance fitness of -0.584 ± 0.16. With K20A the abundance fitness was -0.699 ± 0.089. In the case of Y21W, the abundance fitness is reported as -0.674 ± 0.099. Variant G18Q has an abundance fitness of -0.661 ± 0.12. For D4F, the abundance fitness was -0.613 ± 0.16. For Q28C, the abundance fitness was -0.573 ± 0.13. For A13T, the abundance fitness was -0.527 ± 0.11. D17C showed an abundance fitness of -0.873 ± 0.12. For S43A, the abundance fitness was -0.526 ± 0.11. For I19W, the abundance fitness was -0.566 ± 0.1. For Q28I, the abundance fitness was -0.664 ± 0.16. H34R gave an abundance fitness of -0.488 ± 0.082. In the case of S38D, the abundance fitness is reported as -0.004 ± 0.13. For L40W, the abundance fitness was -0.136 ± 0.1. In the case of S45D, the abundance fitness is reported as -0.06 ± 0.14. In the case of M37N, the abundance fitness is reported as 0.404 ± 0.21. With D17L the abundance fitness was -0.823 ± 0.093. W10R gave an abundance fitness of -0.863 ± 0.083. With S43W the abundance fitness was -1 ± 0.16. For V36Y, the abundance fitness was -0.254 ± 0.13. Variant T15W has an abundance fitness of -0.814 ± 0.096. Variant S38F has an abundance fitness of -0.531 ± 0.13. Variant T29K has an abundance fitness of -0.759 ± 0.46. Work on D17I yielded an abundance fitness of -0.63 ± 0.11. V39M showed an abundance fitness of -0.174 ± 0.12. S45M gave an abundance fitness of -0.986 ± 0.29. For L40R, the abundance fitness was -0.003 ± 0.082. L6S showed an abundance fitness of -0.816 ± 0.1. Variant T30D has an abundance fitness of -0.859 ± 0.14. In the case of G18S, the abundance fitness is reported as -0.725 ± 0.091. In the case of D2F, the abundance fitness is reported as -0.849 ± 0.13. D17W gave an abundance fitness of -0.835 ± 0.1. For S31W, the abundance fitness was -0.922 ± 0.14. In the case of V26S, the abundance fitness is reported as -0.07 ± 0.098. I33L showed an abundance fitness of -0.245 ± 0.089. For R44E, the abundance fitness was 0.376 ± 0.11. Work on A16H yielded an abundance fitness of -0.342 ± 0.091. S38P gave an abundance fitness of -0.141 ± 0.097. For T29W, the abundance fitness was -0.556 ± 0.47. With E12D the abundance fitness was -0.89 ± 0.15. In the case of G18C, the abundance fitness is reported as -0.902 ± 0.12. With E46D the abundance fitness was -0.243 ± 0.13. Work on L42T yielded an abundance fitness of 0.048 ± 0.12. Variant D4P has an abundance fitness of -0.511 ± 0.13. Variant S31E has an abundance fitness of -0.724 ± 0.16. Work on S43C yielded an abundance fitness of -0.518 ± 0.13. L6N gave an abundance fitness of -0.375 ± 0.16. With L6A the abundance fitness was -0.707 ± 0.094. For E12C, the abundance fitness was -0.496 ± 0.1. In the case of A13D, the abundance fitness is reported as -1.11 ± 0.18. For L1S, the abundance fitness was 0.28 ± 0.13. In the case of H25E, the abundance fitness is reported as -0.502 ± 0.13. For F22Q, the abundance fitness was -0.823 ± 0.16. For T30Q, the abundance fitness was -0.624 ± 0.12. I19M gave an abundance fitness of 0.313 ± 0.091. In the case of E46S, the abundance fitness is reported as -0.582 ± 0.49. For W32C, the abundance fitness was -0.346 ± 0.12. S38E gave an abundance fitness of -0.693 ± 0.13. With M3T the abundance fitness was 0.287 ± 0.086. N24W showed an abundance fitness of -0.609 ± 0.13. With E11L the abundance fitness was -0.771 ± 0.089. For W32A, the abundance fitness was -0.787 ± 0.11. With V39N the abundance fitness was 0.168 ± 0.18. Work on H25S yielded an abundance fitness of -0.006 ± 0.11. Variant K20T has an abundance fitness of -0.767 ± 0.13. Variant G18P has an abundance fitness of -0.834 ± 0.12. For H34E, the abundance fitness was -0.826 ± 0.13. L6Q gave an abundance fitness of -0.817 ± 0.14. T27R showed an abundance fitness of -0.234 ± 0.081. With D4A the abundance fitness was -0.561 ± 0.085. In the case of T29S, the abundance fitness is reported as -0.475 ± 0.098. Y8W showed an abundance fitness of -0.371 ± 0.091. For I33P, the abundance fitness was -0.897 ± 0.15. In the case of V26D, the abundance fitness is reported as -0.087 ± 0.14. For K20C, the abundance fitness was -0.753 ± 0.1. Work on Y8H yielded an abundance fitness of -0.094 ± 0.098. With F22M the abundance fitness was -0.44 ± 0.14. D17H showed an abundance fitness of -0.691 ± 0.18. For C5F, the abundance fitness was -0.11 ± 0.11. Variant D4E has an abundance fitness of -0.16 ± 0.1. Work on S31L yielded an abundance fitness of -0.788 ± 0.11. Variant E12I has an abundance fitness of -0.273 ± 0.13. With M3I the abundance fitness was -0.425 ± 0.11. In the case of I33A, the abundance fitness is reported as -0.248 ± 0.1. Work on I19C yielded an abundance fitness of 0.348 ± 0.1. V36F gave an abundance fitness of -0.444 ± 0.12. With C5Y the abundance fitness was -0.268 ± 0.088. Work on I23C yielded an abundance fitness of -0.892 ± 0.15. A13F showed an abundance fitness of -0.946 ± 0.19. With L6W the abundance fitness was -0.922 ± 0.11. With R44P the abundance fitness was 0.041 ± 0.12. With Y21I the abundance fitness was -0.894 ± 0.36. T27G gave an abundance fitness of -0.248 ± 0.079. Work on T29N yielded an abundance fitness of -0.759 ± 0.14. K20N gave an abundance fitness of -0.54 ± 0.19. Work on L6V yielded an abundance fitness of -0.511 ± 0.089. T30C showed an abundance fitness of -0.142 ± 0.14. With M37F the abundance fitness was -0.292 ± 0.18. Q28H gave an abundance fitness of -0.204 ± 0.13. In the case of L42A, the abundance fitness is reported as -0.05 ± 0.088. S43N gave an abundance fitness of 0.116 ± 0.16. Variant W10F has an abundance fitness of -0.796 ± 0.14. With W32D the abundance fitness was -0.539 ± 0.16. With Y14P the abundance fitness was -1 ± 0.12. V36A gave an abundance fitness of 0.59 ± 0.083. V36S showed an abundance fitness of 0.659 ± 0.084. Variant T27Q has an abundance fitness of -0.344 ± 0.14. With I19F the abundance fitness was -0.352 ± 0.12. With A16P the abundance fitness was -0.349 ± 0.096. H25R showed an abundance fitness of 0.108 ± 0.085. Y21E showed an abundance fitness of -0.953 ± 0.14. Variant Y14C has an abundance fitness of -0.586 ± 0.1. L42W gave an abundance fitness of -0.292 ± 0.1. T27W gave an abundance fitness of -0.179 ± 0.1. V39D showed an abundance fitness of 0.466 ± 0.11. R44C showed an abundance fitness of 0.016 ± 0.11. Variant L42R has an abundance fitness of 0.108 ± 0.085. Work on V26G yielded an abundance fitness of 0.022 ± 0.08. Work on V26R yielded an abundance fitness of -0.096 ± 0.08. H34P showed an abundance fitness of -0.181 ± 0.11. Variant A13W has an abundance fitness of -0.766 ± 0.11. D17V gave an abundance fitness of -0.648 ± 0.097. I23F gave an abundance fitness of -0.715 ± 0.19. With M3E the abundance fitness was 0.144 ± 0.088. With Y14A the abundance fitness was -0.645 ± 0.09. Work on E12L yielded an abundance fitness of -0.804 ± 0.099. In the case of M3G, the abundance fitness is reported as -0.084 ± 0.075. In the case of E11P, the abundance fitness is reported as -0.78 ± 0.11. In the case of L6D, the abundance fitness is reported as -0.405 ± 0.15. With G9H the abundance fitness was -0.86 ± 0.15. With I19D the abundance fitness was 0.771 ± 0.1. R44L showed an abundance fitness of -0.512 ± 0.11. With A13Q the abundance fitness was -0.677 ± 0.13. Variant A16L has an abundance fitness of -0.649 ± 0.09. I19R showed an abundance fitness of 0.428 ± 0.074. For H25Y, the abundance fitness was -0.941 ± 0.21. P35F showed an abundance fitness of -0.895 ± 0.16. Variant W10D has an abundance fitness of -0.68 ± 0.13. E12N gave an abundance fitness of -0.765 ± 0.19. E12A gave an abundance fitness of -0.767 ± 0.1.
